From the supplement of paper PMC9170038

Tested on: MS2 coat protein
Test: apparent KD of MS2 coat protein; designed switch direction (-1 OFF switch, 1 ON switch): -1; higher = weaker reporter binding
Outline: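 Designed RNA switches sharing common flanks were transcribed on Illumina chips by stalled E. coli RNA polymerase. They were titrated with SNAP-549-labelled MS2 coat protein, from 0.7 or 1.5 nM doubling to 3 µM, in Tris-HCl pH 7.5 buffer with KCl, MgCl2, BSA, DTT, tRNA and Tween-20. Titrations ran without input, with 200 uM small-molecule ligand, or with an oligonucleotide input. The apparent KD of each design is the median over its clusters, after curve-fitting of normalised cluster fluorescence.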

[1] = Eterna round: R95, input ligand: FMN 200 uM
[2] = Eterna round: R95, input ligand: microRNA oligo, concentration not stated
[3] = Eterna round: R95, input ligand: none
[4] = input ligand: microRNA oligo, concentration not stated

ACUUAUAGAGGAUAUACAGUUAAUUACAUGAGGAUCACCCAUGUUCUUCAAUGUAUAUAAGUAGAAGGCAAAGGAA [Mat - Exclusion 5 - Eli Mod - D3] (Eterna round: R97, puzzle: Exclusion 5)
apparent KD of MS2 coat protein (input ligand: FMN 200 uM): 23.2 nM | apparent KD of MS2 coat protein (input ligand: none): 16.2 nM

ACUUAUUGAGGAUAUACAGAAAAUUACAUGAGGAUCACCCAUGUUCUUCAAUGUAUAUAUGUAGAAGGCAGAAUAU [Mat - Exclusion 5 - JL Mod - D19] (Eterna round: R97, puzzle: Exclusion 5)
apparent KD of MS2 coat protein (input ligand: FMN 200 uM): 31.1 nM | apparent KD of MS2 coat protein (input ligand: none): 16.5 nM

AGAAAGGAAGGAUAUACAAGAAAGCUGGGCAACGUCUCAUAACAUGAGGAUCACCCAUGUAGAAGGUCCAGGAA [Tiusredi] (puzzle: Exclusion 2)
apparent KD of MS2 coat protein [1]: 35.7 nM | apparent KD of MS2 coat protein [2]: 21.2 nM | apparent KD of MS2 coat protein [3]: 19.3 nM

AGAAAUGCCCAUGGCCGCAAGCUCUUUGCUUGUCUUACCACAUGAGGAUCACCCAUGUGACAUGGGCUCCUUAUAAU [Riquarge] (puzzle: Sensor v3, turn-off variant 2)
apparent KD of MS2 coat protein [1]: 13.9 nM | apparent KD of MS2 coat protein [2]: 9.77 nM | apparent KD of MS2 coat protein [3]: 12 nM

AGAACUCUAGUAGGAUAUGUCGGAUAUGUUGUUGAGGUUCACCCAACGACGUCAAUGACAGAGGGACAGAAGGACUCCUGUUCC [pwkr exNG2 2xFMN 1xF5.9] (Eterna round: R96, puzzle: Exclusion NG 2)
apparent KD of MS2 coat protein (input ligand: FMN 200 uM): 873 nM | apparent KD of MS2 coat protein [4]: 506 nM | apparent KD of MS2 coat protein (input ligand: none): 1110 nM

AGAAGUAGUAACCGAUCCUACAUGAGGAUCACCCAUGUAGCUAGACGUGCACGCGAUGCUCGUCAGACUACCAGAUG [salish99_TOv1_r3_027] (puzzle: Sensor v3, turn-off variant 1)
apparent KD of MS2 coat protein [1]: 171 nM | apparent KD of MS2 coat protein [2]: 136 nM | apparent KD of MS2 coat protein [3]: 171 nM

AGACAGUCAGGAUAUACAUGAGGAUCACCCAUGUUGAGAUGAGAAAGGGCAGGAAGAGGUAGAAGGGACAAGAG [JR_Exclu3_Sub036] (puzzle: Exclusion 3)
apparent KD of MS2 coat protein [1]: 25 nM | apparent KD of MS2 coat protein [2]: 20.8 nM | apparent KD of MS2 coat protein [3]: 24.8 nM

AGAGAAUAGUCAGGAUAUGAGAAUAGAUAGAGCUCAGAAGGGACACAUGAGGAUCACCCAUGUGAAGUCUUGAGGCUGCGUGGA [Prohibition 20 - Jieux - Exclusion NG 1] (Eterna round: R96, puzzle: Exclusion NG 1)
apparent KD of MS2 coat protein [4]: 11.3 nM

AGAGAGUCAGGAUAUCGAAGGUAGAGAAGAGGAGAGUGGUACGAGAAGGGACAUGAGGAUCACCCAUGUAGGUG [JR_Exclusion4)Sub012] (puzzle: Exclusion 4)
apparent KD of MS2 coat protein [1]: 193 nM | apparent KD of MS2 coat protein [2]: 245 nM | apparent KD of MS2 coat protein [3]: 462 nM

AGAGUGCUGCGAGGAUAUACAUGAGGAUCACCCAUGUAAAAGUGUGAGGCAAAGCCUCACACGAAGUAGAAGGCGCAGUACUCA [Mat - Exclusion NG 2 - Mod of JL - D34] (Eterna round: R96, puzzle: Exclusion NG 2)
apparent KD of MS2 coat protein (input ligand: FMN 200 uM): 12.8 nM | apparent KD of MS2 coat protein [4]: 9.85 nM | apparent KD of MS2 coat protein (input ligand: none): 25.2 nM

AGAGUGCUGCGAGGAUAUACAUGAGGAUCACCCAUGUAAAAGUGUGAGGCUUUGCCUCACACGAAGUAGAAGGCGCAGUACUCA [Mat - Exclusion NG 2 - Mod of JL - D33] (Eterna round: R96, puzzle: Exclusion NG 2)
apparent KD of MS2 coat protein (input ligand: FMN 200 uM): 13 nM | apparent KD of MS2 coat protein [4]: 11.3 nM | apparent KD of MS2 coat protein (input ligand: none): 24.3 nM

AGAUAGUGCUGAGGAUAUCUGAAUAGAAAGAAAAGAGAAGGCGGACAUGAGGAUCACCCAUGUGAGGUCUUGAGACUACAUGGU [Prohibition 37 - Jieux - Exclusion NG 1] (Eterna round: R96, puzzle: Exclusion NG 1)
apparent KD of MS2 coat protein (input ligand: FMN 200 uM): 393 nM | apparent KD of MS2 coat protein [4]: 42.9 nM | apparent KD of MS2 coat protein (input ligand: none): 80.4 nM

AGAUCACAUGAGGAUCACCCAUGUCAGGAUAUCAUCAUUGAAGCCUCGGCUUCAAUGAUGAGAAGGGACAUAAU [E1/2-B2] (Eterna round: R97, puzzle: Exclusion 1)
apparent KD of MS2 coat protein (input ligand: FMN 200 uM): 546 nM | apparent KD of MS2 coat protein (input ligand: none): 465 nM

AGAUGCAGAGUAAGGAUAUGGUAGGCUUGCGCAAACCAGAAGGUACAUGAGGAUCACCCAUGUAAGCAUCAAGU [eternacac ex4r4 #5] (Eterna round: R97, puzzle: Brourd's mod of Exclusion 4)
apparent KD of MS2 coat protein (input ligand: FMN 200 uM): 16 nM | apparent KD of MS2 coat protein (input ligand: none): 15.1 nM

AGAUGCUUAAGUCGACAUGAGGAUCACCCAUGUACAGUUAACGAGGAUAUCCGAGAUAAAUAAUAGGAGAAGGCGUGAUCAUGA [Ex NG3 #2] (Eterna round: R96, puzzle: Exclusion NG 3)
apparent KD of MS2 coat protein (input ligand: FMN 200 uM): 56.6 nM | apparent KD of MS2 coat protein [4]: 363 nM | apparent KD of MS2 coat protein (input ligand: none): 277 nM

AGAUGGCGAGGAUAUACAUGAGGAUCACCCAUGUGAGAUAAAAGAGUGAGGAAGAAAAGUAGAAGGCGCUGUCA [Mat - Exclusion 3 - Mod of Salish D16] (puzzle: Exclusion 3)
apparent KD of MS2 coat protein [1]: 116 nM | apparent KD of MS2 coat protein [2]: 95.8 nM | apparent KD of MS2 coat protein [3]: 120 nM

AGAUGGCGAGGAUAUACAUGAGGAUCACCCAUGUGAGAUAAGAAAGUGAGGAAGAAAAGUAGAAGGCGCUGUCA [Mat - Exclusion 3 - Mod of Salish D12] (puzzle: Exclusion 3)
apparent KD of MS2 coat protein [1]: 281 nM | apparent KD of MS2 coat protein [2]: 58.6 nM | apparent KD of MS2 coat protein [3]: 58.4 nM

AGAUGUACCUAGGAUAUCCGUCGAAUUGGACUAGGAGAAGGAGGUACAUGAGGAUCACCCAUGUAUGACUCCUG [Bemabice] (puzzle: Exclusion 6)
apparent KD of MS2 coat protein [2]: 10.1 nM

AGAUGUAGAUACCGGUCCUACAUGAGGAUCACCCAUGUAGCUAGACGUGCGGGCGGCGCUCGUCGGUCUACCAGUAG [salish99_TOv1_r3_099] (puzzle: Sensor v3, turn-off variant 1)
apparent KD of MS2 coat protein [1]: 30.2 nM | apparent KD of MS2 coat protein [2]: 30.7 nM | apparent KD of MS2 coat protein [3]: 37.7 nM

AGCAGACGAGGAUAUAAACGAUAUAACAUGAGGAUCACCCAUGUACGAUCGAAUGAUCGUUUAGAAGGCGUCUGCU [E5/10-A2] (Eterna round: R97, puzzle: Exclusion 5)
apparent KD of MS2 coat protein (input ligand: FMN 200 uM): 17.3 nM | apparent KD of MS2 coat protein (input ligand: none): 15.1 nM

AGCAUGGUAGGAUAUACGGAACAUUAGGGUUUGUUGUGUGGACAUGAGGAUCACCCAUGUAGAAGGGCCGUGCA [Mat - Exclusion 2 - Mod of JL - D81] (puzzle: Exclusion 2)
apparent KD of MS2 coat protein [2]: 33.7 nM

AGCCAAGCAGGAUAUGCACGUAAUAACAUGAGGAUCACCCAUGUGACCGAUUUAUAUUCUGCAGAAGGGCUUGGAA [LRO-Excl5-14-mod of Erxesoan mod by Eli Fisker] (Eterna round: R97, puzzle: Exclusion 5)
apparent KD of MS2 coat protein (input ligand: FMN 200 uM): 143 nM | apparent KD of MS2 coat protein (input ligand: none): 29.7 nM
